Tests used:
[1] = molecular target: mouse CARMIL2 Q538E tagged with a Twin-Strep-tag at the N terminus (CARMIL2^QE-OST) (mouse); test: affinity purification with mass spectrometry; OST-tagged CARMIL2 purified on Strep-Tactin Sepharose beads from lysates of short-term expanded mouse CD4+ T cells, untreated or treated with pervanadate for 2, 5 and 10 min; label-free quantitative MS, interaction stoichiometries
[2] = molecular target: mouse CARMIL2 Q538E (untagged, CARMIL2^QE) (mouse); test: co-IP; Immunoprecipitation with anti-CARMIL2 (EM-53) from lysates of short-term expanded mouse CD8+ (OT-I) and CD4+ T cells (Carmil2^QE, Carmil2^QE Cd28-/-), immunoblot with anti-CARMIL2 and anti-CARD11; cells untreated or treated with pervanadate for 2 and 5 min at 37°C

fold increase of the interaction stoichiometry after T cell activation over that in resting cells [1]: 7 fold | percent of the available CARMIL2^QE-OST molecules complexed to CARD11 after 2 min of activation [1]: 12% | fold lower level of complexes in unstimulated Carmil2^QE Cd28-/- CD4+ T cells than in unstimulated Carmil2^QE CD4+ T cells [2]: 2 fold
B1: mouse CARD11 (natural protein)
chain: MPGGGPAMDDYMETLKDEEEALWDNVECNRHMLSRYINPAKLTPYLRQCKVIDEQDEDEVLNAPMLPSKINRAGRLLDILHTKGQRGYVVFLESLEFYYPELYKLVTGKEPTRRFSTIVVEEGHEGLTHFLMNEVIKLQQQVKAKDLQRCELLAKSRQLEDEKKQLSLIRVELLTFQERYYKMKEERDSYNDELVKVKDDNYNLAMRYAQLSEEKNMAVMRSRDLQLEIDQLKHRLNKMEEECKLERNQSLKLKNDIENRPRKEQVLELERENEMLKTKIQELQSIIQAGKRSLPDSDKAILDILEHDRKEALEDRQELVNKIYNLQEEVRQAEELRDKYLEEKEDLELKCSTLGKDCEMYKHRMNTVMLQLEEVERERDQAFHSRDEAQTQYSQCLIEKDKYRKQIRELEEKNDEMRIEMVRREACIVNLESKLRRLSKDNGSLDQSLPRHLPATIISQNLGDTSPRTNGQEADDSSTSEESPEDSKYFLPYHPPRRRMNLKGIQLQRAKSPISMKQASEFQALMRTVKGHEEDFTDGSPSSSRSLPVTSSFSKMQPHRSRSSIMSITAEPPGNDSIVRRCKEDAPHRSTVEEDNDSCGFDALDLDDENHERYSFGPPSIHSSSSSHQSEGLDAYDLEQVNLMLRKFSLERPFRPSVTSGGHVRGTGPLVQHTTLNGDGLITQLTLLGGNARGSFIHSVKPGSLAERAGLREGHQLLLLEGCIRGERQSVPLDACTKEEARWTIQRCSGLITLHYKVNHEGYRKLLKEMEDGLITSGDSFYIRLNLNISSQLDACSMSLKCDDVVHVLDTMYQDRHEWLCARVDPFTDQDLDTGTIPSYSRAQQLLLVKLQRLVHRGNREEADSAHHTLRSLRNTLQPEEMLSTSDPRVSPRLSRASFFFGQLLQFVSRSENKYKRMNSNERVRIISGSPLGSLSRSSLDATKLLTEKHEELDPENELSRNLTLIPYSLVRAFHCERRRPVLFTPTMLAKTLVQKLLNSGGAMEFTICKSDIVTRDEFLRKQKTETIIYSREKNPNTFECIVPANIEAVAAKNKHCLLEAGIGCVRDLIKCKVYPIVLLIRVSEKNIKRFRKLLPRPETEEEFLRVCRLKEKELEALPCLYATVEAEMWSSVEELLRVLKDKIVEEQRKTIWVDEDQL
